For the data set, the target named is T1, DG-PprI patch 1 mutant (Deinococcus geothermalis, UniProt Q1J1D6 1-289, R85A;R207A;R267A).
T1 sequence: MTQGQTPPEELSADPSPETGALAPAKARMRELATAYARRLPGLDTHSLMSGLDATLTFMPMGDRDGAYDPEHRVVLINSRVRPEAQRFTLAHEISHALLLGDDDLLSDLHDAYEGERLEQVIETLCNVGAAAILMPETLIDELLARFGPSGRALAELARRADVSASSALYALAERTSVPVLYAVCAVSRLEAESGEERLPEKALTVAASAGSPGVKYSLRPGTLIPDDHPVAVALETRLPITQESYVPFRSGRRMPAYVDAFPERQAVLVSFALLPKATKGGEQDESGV
Description: EMSA; EMSA: 150 mM NaCl, 20 mM Tris-HCl pH 8.0, 0.1 mg/ml BSA, 0.1 uM FAM-labeled nucleic acid, 0/1/2 uM protein, room temperature 30 min, 10% native PAGE in 1x TB. As to conditions: protein: recombinant; label: 5' FAM.

On to CGCTCTTCGCCATTCTCTTGAAGTTTCAAACTTGG (ssDNA) [35nt ssDNA], for which the binding result is “no binding”.

Source of the values: article PMC10904395, “The Deinococcus protease PprI senses DNA damage by directly interacting with single-stranded DNA”.
